The text below walks through data of PMC5131995.

Usually Kd stands for the concentration at which binding is half-saturated.

For this test, the target named is recombinant human FcγRIIIa (V158) (human) (UniProt P08637). The experiment in a line: SPR. A general note: In SPR one partner is held on a chip, and binding of the other changes the refractive index at the surface.
Chain of UniProt P08637 (P08637 17-208): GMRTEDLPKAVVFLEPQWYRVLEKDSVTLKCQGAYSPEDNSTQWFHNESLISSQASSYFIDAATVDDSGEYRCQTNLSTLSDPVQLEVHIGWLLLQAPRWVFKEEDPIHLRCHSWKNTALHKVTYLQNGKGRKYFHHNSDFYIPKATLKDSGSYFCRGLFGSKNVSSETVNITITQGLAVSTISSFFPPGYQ

On to “anti-EGFR hIgG1 chimeric mAb with variant hIgG1-Fc from donor vector phIgG-mu (from UniProt P01875)”, for which the dissociation constant (Kd) was found to be 29.4 nM. Take “anti-EGFR hIgG1 chimeric mAb with variant hIgG1-Fc from donor vector phIgG-SDIE (from UniProt P01875)”: the dissociation constant (Kd) stood at 7.42 nM.
